The target of test [1] is T1, CD3 (recombinant, as analyte of Table 4) (human (homo sapiens), UniProt P07766 23-126; P04234 22-105).
T1 construct: That the analyte was a CD3E/CD3D pair is an inference; also called hCD3E; hCD3D
Kind of test: SPR, Biacore T200, as in Section 2.3; CD3 as analyte.

Test [2] has as its target T2, MIP-P3-His (disulfide trap single-chain trimer of PRAME antigen peptide … and HLA-A24, His tag) (human).
T2 construct: Single polypeptide; His tag added at the C-terminus; also called dtSCT; MIP-P3-His fusion protein
Briefly: SPR, Biacore T200, as in Section 2.3; MIP-P3-His as analyte.

Test [3] has as its target T2, MIP-P3-His (disulfide trap single-chain …). The description is as above. The source holds these as a separate data set.
Test [4] concerns the target HLA-A24 complex with Similar Peptide Segment 8 (…, XCR1) on cells (human; human (homo sapiens)). Kind of test: cell-based or functional assay.
Test [5] has as its target HLA-A24 complex with Similar Peptide Segment 11 (…, KIFBP) on cells (human; human (homo sapiens)). Kind of test: cell-based or functional assay.
Test [6] concerns the target HLA-A24 complex with Similar Peptide Segment 12 (…, CPVL) on cells (human; human (homo sapiens)). Briefly: cell-based or functional assay.
For test [7], the target named is HLA-A24 complex with Similar Peptide Segment 16 (…, PLD1) on cells (human; human (homo sapiens)). Kind of test: cell-based or functional assay.
For test [8], the target named is HLA-A24/PRAME complex: PRAME301-309 (…) presented by HLA-A24 on cells (human; human (homo sapiens)). Briefly: cell-based or functional assay.

Like-named read-outs stand apart in the source and are kept apart here.

What is called Kd is the free concentration of one partner at which half of the binding sites on the other are occupied at equilibrium, for simple one-to-one binding. What is called koff is a measure of how fast the partners let go of each other. As usually defined, the kon is the second-order rate constant of association.

T1 sequence (P07766 23-126, chain 1 of 2): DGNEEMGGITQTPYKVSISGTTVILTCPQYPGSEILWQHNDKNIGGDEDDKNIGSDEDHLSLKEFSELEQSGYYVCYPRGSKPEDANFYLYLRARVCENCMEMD
T1 sequence (P04234 22-105, chain 2 of 2): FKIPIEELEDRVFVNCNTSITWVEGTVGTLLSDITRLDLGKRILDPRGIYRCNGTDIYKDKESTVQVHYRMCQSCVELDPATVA

B1: bispecific antibody 2N83G3×IMCR (bispecific antibody)
chain 1: QVQLVESGGGLVQAGGSLRLSCAASGASLDIYVMGWYRQATGKERDLVAVITGSGNTNYADSVKGRFTISRDDAKNTLYLQMSSLKPEDTAVYYCAGGRPSRYYRDSGTWADFWGQGTQVTVSSGGGGSGGGGSGGGGSQVQLVESGGGLVQAGGSLRLSCAASGASLDIYVMGWYRQATGKERDLVAVITGSGNTNYADSVKGRFTISRDDAKNTLYLQMSSLKPEDTAVYYCAGGRPSRYYRDSGTWADFWGQGTQVTVSSASERKSSVECPPCPAPEFEGGPSVFLFPPKPKDTLMISRTPEVTCVVVDVSQEDPEVQFNWYVDGVEVHNAKTKPREEQYNSTYRVVSVLTVLHQDWLNGKEYKCKVSNKALPASIEKTISKAKGQPREPQVCTLPPSQEEMTKNQVSLSCAVKGFYPSDIAVEWESNGQPENNYKTTPPVLDSDGSFFLVSKLTVDKSRWQEGNVFSCSVMHEALHNHYTQKSLSLSPGK
chain 2: not shown
notes: Arm 1 is 2N83G3-G1m3-FcH1n1 (two tandem N83G3 VHH on the hole Fc); Arm 2 is IMCR-ScFv-G1m3-FcKn1 (anti-CD3 scFv on the knob Fc); also called 2N83G3×IMCR BsAb
As for B1, in test [1], the Kd is 4.57 nM, the dissociation rate constant (koff) amounted to 0.000245 s⁻¹ and the on-rate (kon) is 53600 M⁻¹ s⁻¹. In test [2], this molecule showed a dissociation constant (Kd) of 0.0544 nM, a koff of 7.65e-05 s⁻¹ and a kon of 1.41e+06 M⁻¹ s⁻¹.

B2: N83G3-h5 humanized single-domain antibody (Fc fusion)
VHH: EVQLVESGGGLVKPGGSLRLSCAASGASLDIYVMGWYRQAPGKGLELVAVITGSGNTNYADSVKGRFTISRDDSKNTLYLQMNSLKTEDTAVYYCAGGRPSRYYRDSGTWADFWGQGTTVTVSS
notes: also called humanized mutant N83G3-h5; humanized molecule N83G3-h5
As for B2, in test [3], binding was characterised by a dissociation constant (Kd) of 0.0747 nM, the koff worked out at 5.52e-05 s⁻¹ and the kon came out at 737000 M⁻¹ s⁻¹.

B3: humanized bispecific antibody 2N83G3-h5×IMCR (bispecific antibody)
chain 1: EVQLVESGGGLVKPGGSLRLSCAASGASLDIYVMGWYRQAPGKGLELVAVITGSGNTNYADSVKGRFTISRDDSKNTLYLQMNSLKTEDTAVYYCAGGRPSRYYRDSGTWADFWGQGTTVTVSSGGGGSGGGGSGGGGSEVQLVESGGGLVKPGGSLRLSCAASGASLDIYVMGWYRQAPGKGLELVAVITGSGNTNYADSVKGRFTISRDDSKNTLYLQMNSLKTEDTAVYYCAGGRPSRYYRDSGTWADFWGQGTTVTVSSASERKSSVECPPCPAPEFEGGPSVFLFPPKPKDTLMISRTPEVTCVVVDVSQEDPEVQFNWYVDGVEVHNAKTKPREEQYNSTYRVVSVLTVLHQDWLNGKEYKCKVSNKALPASIEKTISKAKGQPREPQVCTLPPSQEEMTKNQVSLSCAVKGFYPSDIAVEWESNGQPENNYKTTPPVLDSDGSFFLVSKLTVDKSRWQEGNVFSCSVMHEALHNHYTQKSLSLSPGK
chain 2: not shown
notes: Arm 1 is 2N83G3-h5-G1m3-FcH1n1 (two tandem N83G3-h5 VHH on the hole Fc); Arm 2 is IMCR-scFv-G1m3-FcKn1 (anti-CD3 scFv on the knob Fc); also called 2N83G3-h5×IMCR BsAb
Take B3: the “EC50 Value (nM) mediating the Activation of Jurkat-Dual Cells” value in test [4] is 3.71 nM; in test [5], 1.02 nM; in test [6], 5.32 nM; in test [7], 1.07 nM; in test [8], 0.011 nM. The molecule also had a Kd in test [2] of 0.065 nM. In test [2], this molecule gave a dissociation rate constant (koff) of 8.06e-05 s⁻¹. Also, the kon in test [2] was found to be 1.24e+06 M⁻¹ s⁻¹.
